Test results as given in PMC12245071.

Experiments:
[1] = biological target: Soc-SpyCatcher displayed on the T4 phage capsid (T4-SpyCatcher phage) (bacteriophage T4); assay: co-sedimentation; T4-SpyCatcher phage incubated with SpyTagged S-ecto or HA-stem trimers alone at increasing ratios of trimer to Soc binding sites, 4 °C, 1-2 h, PBS pH 7.4; sedimented at 34 000 g, pellets washed twice, SDS-PAGE and band quantification; covalent SpyCatcher-SpyTag conjugation
[2] = biological target: Soc-SpyCatcher displayed on the T4 phage capsid (T4-SpyCatcher phage) (bacteriophage T4); assay: co-sedimentation; sequential co-display on T4-SpyCatcher phage: HA-stem trimers added first, incubated, then S-ecto trimers at 1:1; 4 °C, PBS pH 7.4; SDS-PAGE quantification
[3] = biological target: Soc-SpyCatcher displayed on the T4 phage capsid (T4-SpyCatcher phage) (bacteriophage T4); assay: co-sedimentation; sequential co-display on T4-SpyCatcher phage: S-ecto trimers added first at a 0.25:1 ratio, incubated, then HA-stem trimers added at a 1:1 ratio; 4 °C, PBS pH 7.4; SDS-PAGE quantification

**Q.** What does the source list for “Prefusion-stabilized SARS-CoV-2 spike ectodomain trimer with C-terminal SpyTag (from UniProt P0DTC2 14-1208) (domain or fragment)”?
**A.** copies per capsid (copies per capsid) [1]: 118; copies per capsid (copies per capsid) [2]: 35; copies per capsid (copies per capsid) [3]: 56
